The values that follow come from publication PMC2115109.

Where “and” joins values, the source holds several entries; their conditions need not be identical. Equal entries are not always repeated.

Assay [1] deals with F-actin (actin filaments) from rabbit skeletal muscle (rabbit) (UniProt P68135). Put plainly: co-sedimentation.
Assay [2] addresses monomeric actin from rabbit skeletal muscle (rabbit) (UniProt P68135). Put plainly: pull-down.

CT28N, 28-kD chymotryptic fragment from the NH2-terminal half of human plasma gelsolin (domain or fragment), sequence (P06396 151-406): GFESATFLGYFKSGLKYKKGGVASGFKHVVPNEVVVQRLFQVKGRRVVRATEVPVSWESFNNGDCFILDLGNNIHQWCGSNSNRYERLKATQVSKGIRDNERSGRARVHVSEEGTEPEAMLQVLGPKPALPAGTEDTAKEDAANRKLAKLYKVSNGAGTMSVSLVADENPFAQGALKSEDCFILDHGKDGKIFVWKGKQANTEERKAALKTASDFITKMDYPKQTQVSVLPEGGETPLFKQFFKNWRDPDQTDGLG
CT45N, 45-kD NH2-terminal half chymotryptic fragment of human plasma gelsolin (domain or fragment), sequence (P06396 1-406): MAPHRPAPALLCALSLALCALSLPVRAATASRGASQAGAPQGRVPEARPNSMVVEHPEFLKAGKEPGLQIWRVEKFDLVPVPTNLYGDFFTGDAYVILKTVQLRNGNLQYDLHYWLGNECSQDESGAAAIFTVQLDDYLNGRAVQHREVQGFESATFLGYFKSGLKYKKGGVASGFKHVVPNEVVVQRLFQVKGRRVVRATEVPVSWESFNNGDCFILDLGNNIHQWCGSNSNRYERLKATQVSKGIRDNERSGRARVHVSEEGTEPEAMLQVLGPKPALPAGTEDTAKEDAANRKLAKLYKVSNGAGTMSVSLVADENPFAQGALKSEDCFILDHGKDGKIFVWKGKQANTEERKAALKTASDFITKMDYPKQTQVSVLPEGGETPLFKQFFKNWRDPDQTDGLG

Regarding “CT28N, 28-kD chymotryptic fragment from the NH2-terminal half of human plasma gelsolin (domain or fragment)”, in assay [1], the Ka is 5e+06 M⁻¹; the Kd is 200 nM and 280 nM; the percent of input sedimented amounted to 100%; the percent sedimented was determined as 100%.
In turn, “CT45N, 45-kD NH2-terminal half chymotryptic fragment of human plasma gelsolin (domain or fragment)” yielded a percent sedimented in assay [1] of 67%. Further, the radioactivity on the beads in assay [2] was determined as 540 cpm.
